Experimental findings from US20210395381A1 (OSSIANIX, published 2021) are described below.

Assay [1] concerns the target T1, recombinant human TfR-1 (human, UniProt P02786 89-760).
T1 construct: extracellular domain; also called hTfR1; human transferrin receptor-1
Description: phage ELISA. Here is the method: (§1) After the third round of selection, instead of pooling bacterial colonies, individual phagemid clones were grown in 1 ml of 2TY medium containing glucose and ampicillin in 96-well blocks and used to rescue the phages. After an overnight culturing, bacteria were spun down and an aliquot of the phage supernatant was sent for Sanger sequencing (Genewiz); VNAR CDR3 sequences were identified using BioEdit (a sequence alignment editor). Another aliquot was blocked with 2.5% milk for phage ELISAs. High-binding ELISA plates (Greiner) were coated with 1 μg/ml of recombinant human or mouse TfR-1. The plates were then blocked with 2.5% milk in PBST. Blocked phages were added to the blocked plates and the VNAR-phage clones binding to the antigens were detected with HRP-labelled anti-M13 coat protein antibodies (Sino Biological), and chromogenic TMB substrate (KLM)
For orientation: In an ELISA, binding on a coated surface is turned into a signal by an enzyme label.
T1 sequence (P02786 89-760): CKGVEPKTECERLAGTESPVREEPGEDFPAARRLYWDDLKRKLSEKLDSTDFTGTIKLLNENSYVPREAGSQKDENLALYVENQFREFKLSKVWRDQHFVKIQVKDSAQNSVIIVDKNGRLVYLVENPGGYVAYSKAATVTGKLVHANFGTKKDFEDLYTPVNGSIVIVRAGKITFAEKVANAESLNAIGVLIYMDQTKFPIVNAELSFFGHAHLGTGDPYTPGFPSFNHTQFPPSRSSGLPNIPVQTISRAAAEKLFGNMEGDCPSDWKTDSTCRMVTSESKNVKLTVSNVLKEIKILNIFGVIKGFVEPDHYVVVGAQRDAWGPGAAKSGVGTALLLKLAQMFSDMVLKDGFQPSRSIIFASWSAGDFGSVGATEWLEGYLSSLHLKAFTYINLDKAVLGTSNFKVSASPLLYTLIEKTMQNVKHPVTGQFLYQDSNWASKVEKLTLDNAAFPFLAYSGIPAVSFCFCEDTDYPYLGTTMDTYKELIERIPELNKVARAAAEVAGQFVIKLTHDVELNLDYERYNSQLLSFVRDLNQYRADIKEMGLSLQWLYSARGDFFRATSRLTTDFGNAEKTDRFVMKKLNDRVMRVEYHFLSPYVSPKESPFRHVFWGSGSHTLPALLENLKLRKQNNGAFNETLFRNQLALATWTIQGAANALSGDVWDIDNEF

Assay [2] concerns the target T2, recombinant mouse TfR-1 (mouse, UniProt Q62351 89-763).
T2 construct: Bought recombinant protein; also called mTfR1
Description: phage ELISA. The protocol:
as §1
T2 sequence (Q62351 89-763 limits assumed): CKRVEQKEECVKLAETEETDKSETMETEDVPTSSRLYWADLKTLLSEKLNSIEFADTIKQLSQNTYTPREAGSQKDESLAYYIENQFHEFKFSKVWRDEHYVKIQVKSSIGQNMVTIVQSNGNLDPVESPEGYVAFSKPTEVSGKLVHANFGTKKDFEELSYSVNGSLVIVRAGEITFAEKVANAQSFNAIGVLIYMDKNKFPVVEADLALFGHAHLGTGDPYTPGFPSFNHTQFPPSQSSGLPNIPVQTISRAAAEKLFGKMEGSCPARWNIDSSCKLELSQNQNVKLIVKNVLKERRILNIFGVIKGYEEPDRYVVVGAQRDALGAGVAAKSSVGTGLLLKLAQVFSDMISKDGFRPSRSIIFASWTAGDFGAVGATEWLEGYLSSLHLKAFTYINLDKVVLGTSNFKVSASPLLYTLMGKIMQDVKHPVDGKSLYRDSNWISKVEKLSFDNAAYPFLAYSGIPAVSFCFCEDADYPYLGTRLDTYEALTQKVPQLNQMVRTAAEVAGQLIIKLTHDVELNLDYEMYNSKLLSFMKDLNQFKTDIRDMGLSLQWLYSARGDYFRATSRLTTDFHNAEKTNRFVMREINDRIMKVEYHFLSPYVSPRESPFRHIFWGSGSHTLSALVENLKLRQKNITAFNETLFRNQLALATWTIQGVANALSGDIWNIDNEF

Assay [3] concerns the target T1, recombinant human TfR-1. Put plainly: ELISA titration, large-scale purified VNAR-hFc.
The target in assay [4] is T2, recombinant mouse TfR-1. Description: ELISA titration, large-scale purified VNAR-hFc.
The target of assay [5] is T3, recombinant human TfR-1 (human, UniProt P02786 89-760).
T3 construct: also called hTfR1; human transferrin receptor-1
Put plainly: phage ELISA, VNAR-phage on plate-coated recombinant human TfR-1.
T3 sequence (P02786 89-760 limits assumed): as the sequence (P02786 89-760) above

Assay [6] has as its target T4, recombinant mouse TfR-1 (mouse, UniProt Q62351 89-763).
T4 construct: Coated at 1 ug/ml for the phage ELISA; also called mTfR1; mouse transferrin receptor-1
Description: phage ELISA, VNAR-phage on plate-coated recombinant mouse TfR-1.
T4 sequence (Q62351 89-763 limits assumed): as the sequence (Q62351 89-763 limits assumed) above

Changes are numbered by the printed parent chain.

B1: Clone 5 (VNAR)
VNAR: ARVDQTPQTITKETGESLTINCVLRDSNCALSSTLWYRTKSGSRNEESISKGGRYVETVNSGSKSFSLRINDLTVKDSGTYRCNVQQYDCIASFDVYGDGTAVTVNA
notes: VNAR on phage
On to B1, for which the binding result with recombinant human TfR-1 [1] and in the assay with recombinant mouse TfR-1 [2] was “binds” in each case.

B2: Clone 6 (VNAR)
VNAR: B1 VNAR with I10V, K76E, Q86C, Q87S, Y88N, D89Y, I91P, A92I, S93K, F94D
notes: VNAR on phage
Consider B2, for which the binding result with recombinant human TfR-1 [1] and in the assay with recombinant mouse TfR-1 [2] was “binds” each time.

B3: Clone 8.5 VNAR-hFc fusion (Fc fusion, human, not shown: small tags and cut ends)
chain (part 1 of 2): ARVDQTPQTITKETGESLTINCVLRDSNCALPSTYWYRKKSGSTNEESISKGGRYVETVNSGSKSFSLRINDLTVEDSGTYRCKVIAQLGWWLRGCNYRKHDVYGDGTAVTVNA
chain (part 2 of 2): DKTHTCPPCPAPPVAGPSVFLFPPKPKDTLMISRTPEVTCVVVDVSHEDPEVKFNWYVDGVEVHNAKTKPREEQYNSTYRVVSVLTVLHQDWLNGKEYKCKVSNKGLPSSIEKTISKAKGQPREPQVYTLPPSRDELTKNQVSLTCLVKGFYPSDIAVEWESNGQPENNYKTTPPVLDSDGSFFLYSKLTVDKSRWQQGNVFSCSVMHEALHNHYTQKSLSLSPGK
notes: domain: Fc (CH2 and CH3); also called the variant
By EC50 is commonly meant the concentration that produces a half-maximal response. On to B3, for which the EC50 in the assay with recombinant human TfR-1 [3] was 27 nM; in the assay with recombinant mouse TfR-1 [4], 47 nM. Besides, the “fold difference of EC50 against parental Clone 8” value with recombinant human TfR-1 [3] and with recombinant mouse TfR-1 [4] was more than 25 fold in each case.

B4: Clone 8.149 (VNAR)
VNAR: B3 chain (part 1 of 2) with G90S, W91S, W92I, R99H, K100P
As to B4, the “phage ELISA A450” value is 0.052 A450 with recombinant human TfR-1 [5] and 0.045 A450 with recombinant mouse TfR-1 [6].

B5: Clone 8.155 (VNAR)
VNAR: B3 chain (part 1 of 2) with G90S, W91S, W92I, R99K, K100I, H101A
For the molecule B5, the “phage ELISA A450” value in the assay with recombinant human TfR-1 [5] turned out to be 0.053 A450; with recombinant mouse TfR-1 [6] it was 0.044 A450.

B6: Clone 8.152 (VNAR)
VNAR: B3 chain (part 1 of 2) with I86M, A87D, G90S, W91N, W92M
For B6, the figures for the “phage ELISA A450” value in the assay with recombinant human TfR-1 [5] and in the assay with recombinant mouse TfR-1 [6] were 0.059 A450 and 0.045 A450, respectively.

B7: Clone 8.151 (VNAR)
VNAR: B3 chain (part 1 of 2) with G90S, W91S, W92L, L93E, R99F, K100Q, H101F
On to B7, for which the “phage ELISA A450” value is 0.048 A450 with recombinant human TfR-1 [5] and 0.045 A450 in the assay with recombinant mouse TfR-1 [6].

B8: Clone 8.162 (VNAR)
VNAR: B3 chain (part 1 of 2) with G90S, W91S, W92N, L93R, R94N
With B8, the “phage ELISA A450” value with recombinant human TfR-1 [5] was found to be 0.055 A450; in the assay with recombinant mouse TfR-1 [6], 0.042 A450.

B9: Clone 8.153 (VNAR)
VNAR: B3 chain (part 1 of 2) with G90A, W91F, W92G
In the case of B9, the “phage ELISA A450” value was 0.048 A450 with recombinant human TfR-1 [5] and 0.044 A450 with recombinant mouse TfR-1 [6].

B10: Clone 8.159 (VNAR)
VNAR: B3 chain (part 1 of 2) with G90S, W91S, W92D, L93G, R94Q
With B10, the “phage ELISA A450” value in the assay with recombinant human TfR-1 [5] is 0.057 A450; in the assay with recombinant mouse TfR-1 [6], 0.043 A450.

B11: Clone 8.156 (VNAR)
VNAR: B3 chain (part 1 of 2) with G90S, W91S, W92Q, L93S, R94V
Consider B11, for which the “phage ELISA A450” value with recombinant human TfR-1 [5] turned out to be 0.062 A450; with recombinant mouse TfR-1 [6], 0.044 A450.

B12: Clone 8.150 (VNAR)
VNAR: B3 chain (part 1 of 2) with G90S, W91S, W92I, R99N, K100Q, H101Q
Take B12: the entries for the “phage ELISA A450” value with recombinant human TfR-1 [5] and with recombinant mouse TfR-1 [6] were 0.058 A450 and 0.045 A450, respectively.

B13: Clone 8.157 (VNAR)
VNAR: B3 chain (part 1 of 2) with Q88Y, L89R, G90K, W91S, W92I, L93V
For B13, the “phage ELISA A450” value was 0.048 A450 with recombinant human TfR-1 [5] and 0.044 A450 with recombinant mouse TfR-1 [6].

B14: Clone 8.160 (VNAR)
VNAR: B3 chain (part 1 of 2) with G90S, W91S, W92I, N97F, Y98P, R99Q
In the case of B14, the “phage ELISA A450” value with recombinant human TfR-1 [5] amounted to 0.049 A450; with recombinant mouse TfR-1 [6] it was 0.043 A450.

B15: Clone 8.158 (VNAR)
VNAR: B3 chain (part 1 of 2) with G90N, W91V, W92I
Turning to B15, the results for the “phage ELISA A450” value with recombinant human TfR-1 [5] and with recombinant mouse TfR-1 [6] were 0.046 A450 and 0.043 A450, respectively.

B16: Clone 8.161 (VNAR)
VNAR: B3 chain (part 1 of 2) with G90S, W91S, W92I, N97I, Y98A, R99G
Take B16: the “phage ELISA A450” value with recombinant human TfR-1 [5] came out at 0.048 A450; with recombinant mouse TfR-1 [6], 0.043 A450.

B17: Clone 8.154 (VNAR)
VNAR: B3 chain (part 1 of 2) with G90S, W91S, W92I, N97G, Y98G, R99S
For B17, the “phage ELISA A450” value turned out to be 0.055 A450 with recombinant human TfR-1 [5] and 0.044 A450 with recombinant mouse TfR-1 [6].

B18: Clone 4 (VNAR)
VNAR: ARVDQTPQTITKETGESLTINCVLRDSNCALPSTYWYRKKSGSTNEESISKGGRYVETVNSGSKSFSLRINDLTVKDSGTYRCKVMSQEVRWQMTCKIVVMDVYGGGTVVTVNA
notes: VNAR on phage
As for B18, the binding result in the assay with recombinant human TfR-1 [1] and in the assay with recombinant mouse TfR-1 [2] was “binds” in each case.

B19: Clone 9 (VNAR)
VNAR: ARVDQTPQTITKETGESLTINCVLRDSNCALPSTWYRKKSDSTNEESISKGGRYVETVNSGSKSFSLRINDLTVKDSGTYRCKVLYPNCYRCMWGQVTDVYGGGTAVTVNA
notes: VNAR on phage
Take B19: the binding result in the assay with recombinant human TfR-1 [1] and with recombinant mouse TfR-1 [2] was “binds” in each case.

B20: Clone 7 (VNAR)
VNAR: ARVDQTPQTITKETGESLTINCVLRDNNCALSSTLWYRTKSGSRNEESISKGGRYVETVNSGSKSFSLRINDLTVEDSGTYRCNVQSWPPGNGWWCDVYGDGTAVTVNA
notes: VNAR on phage
Consider B20, for which the binding result with recombinant human TfR-1 [1] and with recombinant mouse TfR-1 [2] was “binds” in each case.
